{"source": "paper PMC8279307", "biological_target": "SARS-CoV-2 Spike receptor-binding domain (SARS-CoV-2) (UniProt P0DTC2)", "assay": "AUC"}
{"substance": "SARS-CoV-2 Spike receptor-binding domain (from UniProt P0DTC2) (domain or fragment)", "values": [{"measurement": "stoichiometry N", "result": 2}]}
